From patent CN110616192A

Tests used:
神经丝轻链(NEFL) (human) [1] = target: 神经丝轻链(NEFL) (human) (UniProt P07196); test: indirect ELISA titre, serial two-fold dilution of purified antibody
神经丝轻链(NEFL) (human) [2] = target: 神经丝轻链(NEFL) (human) (UniProt P07196); test: indirect ELISA, antigen coated at 5 μg/ml, antibody diluted 10^4-fold
神经丝轻链(NEFL) (human) [3] = target: 神经丝轻链(NEFL) (human) (UniProt P07196); test: calculated from the indirect ELISA titre

Chain of UniProt P07196 (P07196 1-360 limits assumed): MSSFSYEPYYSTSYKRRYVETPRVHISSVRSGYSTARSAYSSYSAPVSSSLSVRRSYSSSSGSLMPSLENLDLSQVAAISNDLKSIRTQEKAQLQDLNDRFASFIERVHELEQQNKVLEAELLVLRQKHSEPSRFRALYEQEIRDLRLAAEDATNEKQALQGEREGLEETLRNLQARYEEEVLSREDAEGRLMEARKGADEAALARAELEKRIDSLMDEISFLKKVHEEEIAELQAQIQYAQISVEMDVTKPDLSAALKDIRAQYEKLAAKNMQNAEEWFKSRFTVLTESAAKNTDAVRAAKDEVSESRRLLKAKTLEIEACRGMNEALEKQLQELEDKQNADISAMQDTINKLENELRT

| Substance | 抗体效价 (神经丝轻链(NEFL) (human) [1]) | OD450 (神经丝轻链(NEFL) (human) [2]) [OD450] | Ka (神经丝轻链(NEFL) (human) [3]) [M⁻¹] |
| --- | --- | --- | --- |
| 抗NEFL单克隆抗体OTI11F8 (antibody) | 512000 | > 1.5 |  |
| 抗人神经丝轻链(NEFL)单克隆抗体OTI11F6 (antibody) | 1.02e+06 | > 1.5 | 1.4e+09 |
| 抗NEFL单克隆抗体OTI3G2 (antibody) | 512000 | > 1.5 |  |
| 抗NEFL单克隆抗体OTI2F5 (antibody) | 1.02e+06 | > 1.5 |  |
